Reference: patent US20210388087A1 (Chugai, published 2021)
Where a chain is given by its changes, count along the chain named. Numbers in names are those of the source.

B1: H183/L072 VH Q50D (antibody, name in Kabat numbering, V domains shown)
VH: QVQLVESGGGLVQPGRSLRLSCAASGFTFSNAWMHWVRQAPGKGLEWVADIKDKGNAYAAYYAPSVKGRFTISRDDSKNSIYLQMNSLKTEDTAVYYCHYVHYASASTVLPAFGVDAWGQGTTVTVSS
VL: DIVMTQSPLSLPVTPGEPASISCQASQELVHMNRNTYLHWYQQKPGQAPRLLIYKVSNRFPGVPDRFSGSGSGTDFTLKISRVEAEDVGVYYCAQGTSVPFTFGQGTKLEIK
B2: H183/L072 VH S99M (antibody, name in Kabat numbering, V domains shown)
VH: B1 VH with D50Q, S105M
VL: B1 VL
B3: H183/L072 VH S30M (antibody, name in Kabat numbering, V domains shown)
VH: B1 VH with S30M, D50Q
VL: B1 VL
B4: H183/L072 VH S30D (antibody, name in Kabat numbering, V domains shown)
VH: B1 VH with S30D, D50Q
VL: B1 VL
B5: H183/L072 VH S30G (antibody, name in Kabat numbering, V domains shown)
VH: B1 VH with S30G, D50Q
VL: B1 VL
B6: H183/L072 VH S100aL (antibody, name in Kabat numbering, V domains shown)
VH: B1 VH with D50Q, S107L
VL: B1 VL
B7: H183/L072 VH S100aM (antibody, name in Kabat numbering, V domains shown)
VH: B1 VH with D50Q, S107M
VL: B1 VL
B8: H183/L072 VH S30I (antibody, name in Kabat numbering, V domains shown)
VH: B1 VH with S30I, D50Q
VL: B1 VL
B9: H183/L072 VH Q50N (antibody, name in Kabat numbering, V domains shown)
VH: B1 VH with D50N
VL: B1 VL
B10: H183/L072 VH Q50V (antibody, name in Kabat numbering, V domains shown)
VH: B1 VH with D50V
VL: B1 VL
B11: H183/L072 VH S62L (antibody, name in Kabat numbering, V domains shown)
VH: B1 VH with D50Q, S65L
VL: B1 VL
B12: H183/L072 VH S30V (antibody, name in Kabat numbering, V domains shown)
VH: B1 VH with S30V, D50Q
VL: B1 VL
B13: H183/L072 VH S99A (antibody, name in Kabat numbering, V domains shown)
VH: B1 VH with D50Q, S105A
VL: B1 VL
B14: H183/L072 VH S30Q (antibody, name in Kabat numbering, V domains shown)
VH: B1 VH with S30Q, D50Q
VL: B1 VL
B15: H183/L072 VH S30A (antibody, name in Kabat numbering, V domains shown)
VH: B1 VH with S30A, D50Q
VL: B1 VL
B16: H183/L072 VH S30T (antibody, name in Kabat numbering, V domains shown)
VH: B1 VH with S30T, D50Q
VL: B1 VL
B17: H183/L072 VH S99I (antibody, name in Kabat numbering, V domains shown)
VH: B1 VH with D50Q, S105I
VL: B1 VL
B18: H183/L072 VH S62A (antibody, name in Kabat numbering, V domains shown)
VH: B1 VH with D50Q, S65A
VL: B1 VL
B19: H183/L072 VH S30E (antibody, name in Kabat numbering, V domains shown)
VH: B1 VH with S30E, D50Q
VL: B1 VL
B20: H183/L072 VH S100aI (antibody, name in Kabat numbering, V domains shown)
VH: B1 VH with D50Q, S107I
VL: B1 VL
B21: H183/L072 VH Q50F (antibody, name in Kabat numbering, V domains shown)
VH: B1 VH with D50F
VL: B1 VL
B22: H183/L072 VH S99L (antibody, name in Kabat numbering, V domains shown)
VH: B1 VH with D50Q, S105L
VL: B1 VL
B23: H183/L072 VH S30H (antibody, name in Kabat numbering, V domains shown)
VH: B1 VH with S30H, D50Q
VL: B1 VL
B24: H183/L072 VH S30K (antibody, name in Kabat numbering, V domains shown)
VH: B1 VH with S30K, D50Q
VL: B1 VL
B25: H183/L072 VH S30N (antibody, name in Kabat numbering, V domains shown)
VH: B1 VH with S30N, D50Q
VL: B1 VL
B26: H183/L072 VH S62P (antibody, name in Kabat numbering, V domains shown)
VH: B1 VH with D50Q, S65P
VL: B1 VL
B27: H183/L072 VH S30P (antibody, name in Kabat numbering, V domains shown)
VH: B1 VH with S30P, D50Q
VL: B1 VL
B28: H183/L072 VH Q50Y (antibody, name in Kabat numbering, V domains shown)
VH: B1 VH with D50Y
VL: B1 VL
B29: H183/L072 VH Q50E (antibody, name in Kabat numbering, V domains shown)
VH: B1 VH with D50E
VL: B1 VL
B30: H183/L072 VH S30Y (antibody, name in Kabat numbering, V domains shown)
VH: B1 VH with S30Y, D50Q
VL: B1 VL
B31: H183/L072 VH S100aA (antibody, name in Kabat numbering, V domains shown)
VH: B1 VH with D50Q, S107A
VL: B1 VL
B32: H183/L072 VH Q50K (antibody, name in Kabat numbering, V domains shown)
VH: B1 VH with D50K
VL: B1 VL
B33: H183/L072 VH S62M (antibody, name in Kabat numbering, V domains shown)
VH: B1 VH with D50Q, S65M
VL: B1 VL
B34: H183/L072 VH S30R (antibody, name in Kabat numbering, V domains shown)
VH: B1 VH with S30R, D50Q
VL: B1 VL
B35: H183/L072 VH Q50S (antibody, name in Kabat numbering, V domains shown)
VH: B1 VH with D50S
VL: B1 VL
B36: H183/L072 VH S30W (antibody, name in Kabat numbering, V domains shown)
VH: B1 VH with S30W, D50Q
VL: B1 VL
B37: H183/L072 VH S62I (antibody, name in Kabat numbering, V domains shown)
VH: B1 VH with D50Q, S65I
VL: B1 VL
B38: H183/L072 VH Q50W (antibody, name in Kabat numbering, V domains shown)
VH: B1 VH with D50W
VL: B1 VL
B39: H183/L072 VH Q50H (antibody, name in Kabat numbering, V domains shown)
VH: B1 VH with D50H
VL: B1 VL
B40: H183/L072 VH S30L (antibody, name in Kabat numbering, V domains shown)
VH: B1 VH with S30L, D50Q
VL: B1 VL
B41: H183/L072 VH Q50T (antibody, name in Kabat numbering, V domains shown)
VH: B1 VH with D50T
VL: B1 VL
B42: H183/L072 VH S30F (antibody, name in Kabat numbering, V domains shown)
VH: B1 VH with S30F, D50Q
VL: B1 VL
B43: H183/L072 VH Q50M (antibody, name in Kabat numbering, V domains shown)
VH: B1 VH with D50M
VL: B1 VL
B44: H183/L072 VH Q50L (antibody, name in Kabat numbering, V domains shown)
VH: B1 VH with D50L
VL: B1 VL

Target: T1, Human CD137 ECD (human)
T1 construct: also called 4-1BB
T1 sequence (chain, as listed by the source limits assumed): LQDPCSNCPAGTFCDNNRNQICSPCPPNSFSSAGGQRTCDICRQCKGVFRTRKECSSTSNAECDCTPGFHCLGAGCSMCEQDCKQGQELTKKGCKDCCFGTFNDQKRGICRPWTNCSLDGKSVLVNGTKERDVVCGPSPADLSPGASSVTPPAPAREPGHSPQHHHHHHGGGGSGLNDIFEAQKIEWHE
Assay: single mutant vs template dBBDu183H

Binder | fold change of affinity
B1 | 0.3 fold
B2 | 0.8 fold
B3 | 0.8 fold
B4 | 0.4 fold
B5 | 0.9 fold
B6 | 0 fold
B7 | 0 fold
B8 | 0.6 fold
B9 | 0.5 fold
B10 | 0.3 fold
B11 | 0.9 fold
B12 | 0.8 fold
B13 | 1.4 fold
B14 | 0.7 fold
B15 | 1.2 fold
B16 | 0.9 fold
B17 | 0 fold
B18 | 0.7 fold
B19 | 0.6 fold
B20 | 0 fold
B21 | 2.6 fold
B22 | 0.3 fold

Binder | fold change of affinity
B23 | 0.6 fold
B24 | 0.7 fold
B25 | 0.6 fold
B26 | 0.7 fold
B27 | 0.9 fold
B28 | 3.1 fold
B29 | 0.5 fold
B30 | 0.5 fold
B31 | 0 fold
B32 | 0.8 fold
B33 | 0.8 fold
B34 | 0.7 fold
B35 | 0.8 fold
B36 | 0.5 fold
B37 | 0.7 fold
B38 | 1.7 fold
B39 | 0.6 fold
B40 | 0.5 fold
B41 | 2 fold
B42 | 0.7 fold
B43 | 1.5 fold
B44 | 0.8 fold
